Experimental data published in publication PMC6048173, “Structural Insight into Substrate Specificity of 3-Hydroxypropionyl-Coenzyme A Dehydratase from Metallosphaera sedula” (Scientific Reports, 2018).

Legend:
[1] = target: 3-Hydroxypropionyl-CoA dehydratase from Metallosphaera sedula (Metallosphaera sedula); assay: SEC; analytical, Superdex increase 200 10/300 GL, 40 mM Tris-HCl pH 8.0, 150 mM NaCl; 1 mL of 1 mg/mL protein; calibrated with ferritin, conalbumin, carbonic anhydrase, ribonuclease A
[2] = target: 3-Hydroxypropionyl-CoA dehydratase from Metallosphaera sedula (Metallosphaera sedula); assay: crystal structure; Ms3HPCD in complex with CoA, 1.8 Å, space group P21, six monomers in the asymmetric unit; crystals from 10% PEG 8000, 0.1 M sodium-potassium phosphate pH 6.2, 0.2 M NaCl, 10 mM EDTA, 20 °C
[3] = target: T1, 3-Hydroxypropionyl-CoA dehydratase (Ms3HPCD; 3HPCD; 3-HPCD) (Metallosphaera sedula, UniProt A4YI89); assay: X-ray crystal structure, […] Å; details: co-purified, CoA not added during expression or purification; substrate binding site between two monomers; crystals at pH 6.2, 20 °C
T1 construct: gene Msed_2001; Met1-Lys256, C-terminal 6xHis tag (pET30a), expressed in E. coli BL21(DE3)-T1R; hexamer (dimer of trimers)
T1 sequence (A4YI89 whole entry): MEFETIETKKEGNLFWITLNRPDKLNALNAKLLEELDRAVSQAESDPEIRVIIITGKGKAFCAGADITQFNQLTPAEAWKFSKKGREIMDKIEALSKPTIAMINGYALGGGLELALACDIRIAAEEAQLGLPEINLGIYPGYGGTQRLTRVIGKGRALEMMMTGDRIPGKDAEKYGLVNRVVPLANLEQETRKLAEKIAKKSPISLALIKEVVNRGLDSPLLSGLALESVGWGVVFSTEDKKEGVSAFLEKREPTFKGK

| stoichiometry N [1] | stoichiometry N [2] | Molecule | X-ray crystal structure, 1.8 Å [3] |
| --- | --- | --- | --- |
| 6 | 6 | 3-Hydroxypropionyl-CoA dehydratase from Metallosphaera sedula (enzyme) |  |
|  |  | CC(C)(COP(=O)(O)OP(=O)(O)OC[C@H]1O[C@@H](n2cnc3c(N)ncnc32)[C@H](O)[C@@H]1OP(=O)(O)O)[C@@H](O)C(=O)NCCC(=O)NCCS [CoA] | In our current structure, the CoA molecule is tightly bound at the substrate binding site |
